Tests used:
[1] = molecular target: Cpn60 from Pseudoalteromonas haloplanktis (Pseudoalteromonas haloplanktis); assay: native gel or EMSA; native PAGE of purified proteins, Coomassie brilliant blue staining
[2] = molecular target: Cpn60 from Pseudoalteromonas haloplanktis (Pseudoalteromonas haloplanktis); assay: SEC; analytical gel filtration, Superdex 75 GL (10/300), buffer C (20 mM MOPS pH 7.2, 150 mM KCl, 5 mM MgCl2), run at 5 °C, in the absence or presence of 1 mM ATP
[3] = molecular target: Cpn60 from Pseudoalteromonas haloplanktis (Pseudoalteromonas haloplanktis); assay: negative-stain electron microscopy; 0.125 µM Cpn60 in buffer C preincubated at 5 °C or 25 °C; where indicated 1 mM ATP, 1 mM ADP and 0.375 µM Cpn10; 1% uranyl acetate
[4] = molecular target: single-ring SR-GroEL (Escherichia coli) (UniProt P0A6F5); assay: SEC; analytical gel filtration, Superdex 75 GL (10/300), buffer C (20 mM MOPS pH 7.2, 150 mM KCl, 5 mM MgCl2), run at 5 °C, in the absence or presence of 1 mM ATP
[5] = molecular target: Cpn60 from Pseudoalteromonas haloplanktis (Pseudoalteromonas haloplanktis)
[6] = molecular target: Cpn60 from Pseudoalteromonas haloplanktis (Pseudoalteromonas haloplanktis); assay: MST; Cpn60 labelled with NT-647-NHS, serial dilutions of Cpn10 in buffer C with 1 mM ADP, 25 °C, Monolith NT.115, MST power 80%
Escherichia coli GroEL = molecular target: T1, Escherichia coli GroEL (Escherichia coli, UniProt P0A6F5 1-548, fluorophore from the NT-647-NHS labeling kit (in the MST measurements only)); assay: as above; details: both partners purified
T1 construct: GroEL (Cpn60) of Escherichia coli; Tetradecamer (MW 800 kDa); also called Ec GroEL; Ec chaperonin; source: E. coli, purified as described (Weissman et al. 1995; Hayer-Hartl et al. 1996; Kusmiercyk and Martin 2000); copies: 14
T1 sequence (P0A6F5 whole entry): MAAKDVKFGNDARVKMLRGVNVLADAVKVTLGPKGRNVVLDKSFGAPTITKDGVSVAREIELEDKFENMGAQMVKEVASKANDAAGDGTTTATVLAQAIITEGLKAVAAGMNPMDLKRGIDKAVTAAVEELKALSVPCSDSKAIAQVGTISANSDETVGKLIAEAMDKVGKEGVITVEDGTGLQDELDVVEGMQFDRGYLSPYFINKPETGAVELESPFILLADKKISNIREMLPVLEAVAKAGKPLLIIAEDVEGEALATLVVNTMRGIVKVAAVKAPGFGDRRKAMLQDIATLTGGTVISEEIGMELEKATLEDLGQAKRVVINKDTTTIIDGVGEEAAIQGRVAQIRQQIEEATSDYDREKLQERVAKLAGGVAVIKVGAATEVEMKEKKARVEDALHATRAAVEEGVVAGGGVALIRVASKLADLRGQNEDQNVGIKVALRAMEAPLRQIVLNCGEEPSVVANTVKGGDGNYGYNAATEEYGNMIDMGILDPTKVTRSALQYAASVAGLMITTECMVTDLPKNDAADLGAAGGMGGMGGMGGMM

Cpn60 from Pseudoalteromonas haloplanktis (natural protein)
stoichiometry N [1]: 14 | stoichiometry N [2]: 14 | stoichiometry N [3]: 14

single-ring SR-GroEL (from UniProt P0A6F5 1-548) (natural protein)
stoichiometry N [4]: 7

α-casein (from UniProt P02662 16-214) (natural protein)
stimulation of Ph Cpn60 ATPase by a five-fold molar excess of α-casein (10 °C and 25 °C, with or without Ph Cpn10) [5]: 3 fold

B1: Cpn10 from Pseudoalteromonas haloplanktis (natural protein)
chain: MNIRPLHDRVIVKRLEEETKSAGGIVLTGSAAEKSTRGEVVAVGNGRTLDNGDVRALEVKVGDTVLFGSYVEKAEKIEGQEYLIMREDNILGIVG
Kd [6]: 352 nM

B2: Escherichia coli GroES (natural protein, UniProt P0A6F9 1-97, looked up)
chain: MNIRPLHDRVIVKRKEVETKSAGGIVLTGSAAAKSTRGEVLAVGNGRILENGEVKPLDVKVGDIVIFNDGYGVKSEKIDNEEVLIMSESDILAIVEA
notes: GroES (Cpn10) of Escherichia coli; also called Ec GroES; source: E. coli, purified as described (Weissman et al. 1995; Hayer-Hartl et al. 1996; Kusmiercyk and Martin 2000)
Kd (Escherichia coli GroEL): 8.8 ± 1.8 nM

Source: article PMC11166852, “Low-temperature features of the psychrophilic chaperonin from Pseudoalteromonas haloplanktis” (Archives of Microbiology, 2024)
